{"source": "the supplement of paper PMC10567573", "parents": {"B1": {"name": "TRIM63 (parent)", "chain": "FRCPTCRHEVIMDRHGVYGLQRNL"}}}
{"variants_of": "B1", "assay": "protein stability index of a GFP-peptide fusion (GPS, HEK-293T) (PSI 1-6); higher = more stable", "conditions": "c terminus: a fixed tail appended"}
{"variant": "FRCPTCRHEVIMDRHGVYGRQRNL", "note": "[L20R]", "protein stability index": 1.08}
{"variant": "FRCPTCRHEVIMDRHGVYGKQRNL", "note": "[L20K]", "protein stability index": 1.51}
{"variant": "FRCPTCRHEVIMDRHGVYGNQRNL", "note": "[L20N]", "protein stability index": 2.05}
{"variant": "FRCPTCRHEVIMDRHGVYGMQRNL", "note": "[L20M]", "protein stability index": 1.81}
{"variant": "FRCPTCRHEVIMDRHGVYGWQRNL", "note": "[L20W]", "protein stability index": 2.25}
{"variant": "FRCPTCRHEVIMDRHGVYGPQRNL", "note": "[L20P]", "protein stability index": 1.77}
{"variant": "FRCPTCRHEVIMDRHGVYGFQRNL", "note": "[L20F]", "protein stability index": 2.02}
{"variant": "FRCPTCRHEVIMDRHGVYGSQRNL", "note": "[L20S]", "protein stability index": 2.11}
{"variant": "FRCPTCRHEVIMDRHGVYGYQRNL", "note": "[L20Y]", "protein stability index": 1.99}
{"variant": "FRCPTCRHEVIMDRHGVYGCQRNL", "note": "[L20C]", "protein stability index": 2.39}
{"variant": "FRCPTCRHEVIMDRHGVYGAQRNL", "note": "[L20A]", "protein stability index": 1.77}
{"variant": "FRCPTCRHEVIMDRHGVYGTQRNL", "note": "[L20T]", "protein stability index": 2.81}
{"variant": "FRCPTCRHEVIMDRHGVYGEQRNL", "note": "[L20E]", "protein stability index": 2.27}
{"variant": "FRCPTCRHEVIMDRHGVYGHQRNL", "note": "[L20H]", "protein stability index": 2.75}
{"variant": "FRCPTCRHEVIMDRHGVYGVQRNL", "note": "[L20V]", "protein stability index": 2.71}
{"variant": "FRCPTCRHEVIMDRHGVYGIQRNL", "note": "[L20I]", "protein stability index": 1.6}
{"variant": "FRCPTCRHEVIMDRHGVYGQQRNL", "note": "[L20Q]", "protein stability index": 2.07}
{"variant": "FRCPTCRHEVIMDRHGVYGGQRNL", "note": "[L20G]", "protein stability index": 1.66}
{"variant": "FRCPTCRHEVIMDRHGVYGDQRNL", "note": "[L20D]", "protein stability index": 2.42}
{"variant": "FRCPTCRHEVIMDWHGVYGLQRNL", "note": "[R14W]", "protein stability index": 1.72}
{"variant": "FRCPTCRHEVIMDTHGVYGLQRNL", "note": "[R14T]", "protein stability index": 2.29}
{"variant": "FRCPTCRHEVIMDVHGVYGLQRNL", "note": "[R14V]", "protein stability index": 1.54}
{"variant": "FRCPTCRHEVIMDSHGVYGLQRNL", "note": "[R14S]", "protein stability index": 3.39}
{"variant": "FRCPTCRHEVIMDYHGVYGLQRNL", "note": "[R14Y]", "protein stability index": 1.95}
{"variant": "FRCPTCRHEVIMDQHGVYGLQRNL", "note": "[R14Q]", "protein stability index": 2.52}
{"variant": "FRCPTCRHEVIMDRHGVYGLYRNL", "note": "[Q21Y]", "protein stability index": 2.17}
{"variant": "FRCPTCRHEVIMDRHGVYGLVRNL", "note": "[Q21V]", "protein stability index": 1.59}
{"variant": "FRCPTCRHEVIMDRHGVYGLGRNL", "note": "[Q21G]", "protein stability index": 2.42}
{"variant": "FRCPTCRHEVIMDRHGVYGLPRNL", "note": "[Q21P]", "protein stability index": 1.96}
{"variant": "FRCPTCRHEVIMDRHGVYGLERNL", "note": "[Q21E]", "protein stability index": 2.73}
{"variant": "FRCPTCRHEVIMDRHGVYGLDRNL", "note": "[Q21D]", "protein stability index": 2.1}
{"variant": "FRCPTCRHEVIMDRHGVYGLWRNL", "note": "[Q21W]", "protein stability index": 2.31}
{"variant": "FRCPTCRHEVIMDRHGVYGLRRNL", "note": "[Q21R]", "protein stability index": 1.98}
{"variant": "FRCPTCRHEVIMDRHGVYGLNRNL", "note": "[Q21N]", "protein stability index": 2.87}
{"variant": "FRCPTCRHEVIMDRHGVYGLSRNL", "note": "[Q21S]", "protein stability index": 1.55}
{"variant": "FRCPTCRHEVIMDRHGVYGLARNL", "note": "[Q21A]", "protein stability index": 1.66}
{"variant": "FRCPTCRHEVIMDRHGVYGLFRNL", "note": "[Q21F]", "protein stability index": 1.27}
{"variant": "FRCPTCRHEVIMDRHGVYGLLRNL", "note": "[Q21L]", "protein stability index": 3.19}
{"variant": "FRCPTCRHEVIMDRHGVYGLIRNL", "note": "[Q21I]", "protein stability index": 1.74}
{"variant": "FRCPTCRHEVIMDRHGVYGLMRNL", "note": "[Q21M]", "protein stability index": 1.63}
{"variant": "FRCPTCRHEVIMDRHGVYGLKRNL", "note": "[Q21K]", "protein stability index": 2.02}
{"variant": "FRCPTCRHEVIMDRHGVYGLHRNL", "note": "[Q21H]", "protein stability index": 1.86}
{"variant": "FRCPTCRHEVIMDRHGVYGLCRNL", "note": "[Q21C]", "protein stability index": 2.63}
{"variant": "FRCPTCRHEVIMDRHGVYGLQMNL", "note": "[R22M]", "protein stability index": 1.45}
{"variant": "FRCPTCRHEVIMDRHGVYGLQINL", "note": "[R22I]", "protein stability index": 3.38}
{"variant": "FRCPTCRHEVIMDRHGVYGLQWNL", "note": "[R22W]", "protein stability index": 2.43}
{"variant": "FRCPTCRHEVIMDRHGVYGLQQNL", "note": "[R22Q]", "protein stability index": 2.24}
{"variant": "FRCPTCRHEVIMDRHGVYGLQYNL", "note": "[R22Y]", "protein stability index": 1.75}
{"variant": "FRCPTCRHEVIMDRHGVYGLQLNL", "note": "[R22L]", "protein stability index": 1.34}
{"variant": "FRCPTCRHEVIMDRHGVYGLQDNL", "note": "[R22D]", "protein stability index": 3.21}
{"variant": "FRCPTCRHEVIMDRHGVYGLQNNL", "note": "[R22N]", "protein stability index": 2.95}
{"variant": "FRCPTCRHEVIMDRHGVYGLQANL", "note": "[R22A]", "protein stability index": 2.29}
{"variant": "FRCPTCRHEVIMDRHGVYGLQGNL", "note": "[R22G]", "protein stability index": 1.98}
{"variant": "FRCPTCRHEVIMDRHGVYGLQENL", "note": "[R22E]", "protein stability index": 3.83}
{"variant": "FRCPTCRHEVIMDRHGVYGLQHNL", "note": "[R22H]", "protein stability index": 2.17}
{"variant": "FRCPTCRHEVIMDRHGVYGLQTNL", "note": "[R22T]", "protein stability index": 2.08}
{"variant": "FRCPTCRHEVIMDRHGVYGLQVNL", "note": "[R22V]", "protein stability index": 2.43}
{"variant": "FRCPTCRHEVIMDRHGVYGLQKNL", "note": "[R22K]", "protein stability index": 2.02}
{"variant": "FRCPTCRHEVIMDRHGVYGLQSNL", "note": "[R22S]", "protein stability index": 2.35}
{"variant": "FRCPTCRHEVIMDRHGVYGLQPNL", "note": "[R22P]", "protein stability index": 2.49}
{"variant": "FRCPTCRHEVIMDRHGVYGLQCNL", "note": "[R22C]", "protein stability index": 2.29}
{"variant": "FRCPTCRHEVIMDRHGVYGLQFNL", "note": "[R22F]", "protein stability index": 1.84}
{"variant": "FRCPTCRHEVIMDRHGRYGLQRNL", "note": "[V17R]", "protein stability index": 1.53}
{"variant": "FRCPTCRHEVIMDRHGKYGLQRNL", "note": "[V17K]", "protein stability index": 2.19}
{"variant": "FRCPTCRHEVIMDRHGEYGLQRNL", "note": "[V17E]", "protein stability index": 1.43}
{"variant": "FRCPTCRHEVIMDRHGFYGLQRNL", "note": "[V17F]", "protein stability index": 2.75}
{"variant": "FRCPTCRHEVIMDRHGNYGLQRNL", "note": "[V17N]", "protein stability index": 2.28}
{"variant": "FRCPTCRHEVIMDRHGQYGLQRNL", "note": "[V17Q]", "protein stability index": 3}
{"variant": "FRCPTCRHEVIMDRHGMYGLQRNL", "note": "[V17M]", "protein stability index": 1.69}
{"variant": "FRCPTCRHEVIMDRHGLYGLQRNL", "note": "[V17L]", "protein stability index": 2.08}
{"variant": "FRCPTCRHEVIMDRHGHYGLQRNL", "note": "[V17H]", "protein stability index": 2.23}
{"variant": "FRCPTCRHEVIMDRHGSYGLQRNL", "note": "[V17S]", "protein stability index": 2.77}
{"variant": "FRCPTCRHEVIMDRHGWYGLQRNL", "note": "[V17W]", "protein stability index": 1.8}
{"variant": "FRCPTCRHEVIMDRHGDYGLQRNL", "note": "[V17D]", "protein stability index": 1.58}
{"variant": "FRCPTCRHEVIMDRHGIYGLQRNL", "note": "[V17I]", "protein stability index": 2.41}
{"variant": "FRCPTCRHEVIMDRHGTYGLQRNL", "note": "[V17T]", "protein stability index": 2.66}
{"variant": "FRCPTCRHEVIMDRHGYYGLQRNL", "note": "[V17Y]", "protein stability index": 2.19}
{"variant": "FRCPTCRHEVIMDRHGPYGLQRNL", "note": "[V17P]", "protein stability index": 2.26}
{"variant": "FRCPTCRHEVIMDRHGCYGLQRNL", "note": "[V17C]", "protein stability index": 2.47}
{"variant": "FRCPTCRHEVIMDRHGAYGLQRNL", "note": "[V17A]", "protein stability index": 2.98}
{"variant": "FRCPTCRHEVIMDRHGGYGLQRNL", "note": "[V17G]", "protein stability index": 3.09}
{"variant": "FRCPTCRHEVIMDRHGVYGLQRNG", "note": "[L24G]", "protein stability index": 2.99}
{"variant": "FRCPTCRHEVIMDRHGVYGLQRNK", "note": "[L24K]", "protein stability index": 1.89}
{"variant": "FRCPTCRHEVIMDRHGVYGLQRNA", "note": "[L24A]", "protein stability index": 2.34}
{"variant": "FRCPTCRHEVIMDRHGVYGLQRNI", "note": "[L24I]", "protein stability index": 1.69}
{"variant": "FRCPTCRHEVIMDRHGVYGLQRNC", "note": "[L24C]", "protein stability index": 2.75}
{"variant": "FRCPTCRHEVIMDRHGVYGLQRNF", "note": "[L24F]", "protein stability index": 1.61}
{"variant": "FRCPTCRHEVIMDRHGVYGLQRNH", "note": "[L24H]", "protein stability index": 2.88}
{"variant": "FRCPTCRHEVIMDRHGVYGLQRNQ", "note": "[L24Q]", "protein stability index": 2.26}
{"variant": "FRCPTCRHEVIMDRHGVYGLQRNP", "note": "[L24P]", "protein stability index": 2.98}
{"variant": "FRCPTCRHEVIMDRHGVYGLQRNE", "note": "[L24E]", "protein stability index": 2.46}
{"variant": "FRCPTCRHEVIMDRHGVYGLQRNM", "note": "[L24M]", "protein stability index": 2.03}
{"variant": "FRCPTCRHEVIMDRHGVYGLQRNN", "note": "[L24N]", "protein stability index": 1.85}
{"variant": "FRCPTCRHEVIMDRHGVYGLQRND", "note": "[L24D]", "protein stability index": 2.6}
